Source: the RNAGym collection of RNA variant scans (doi:10.1073/pnas.2313332121)

B1: TPR t1 (parent)
chain: GACCAAUCUGCCCUCAGAGCUCGAGAACAUCUUCGGAUGCAGAGGAGGCAGGCUUCGGUGGCGCGAUAGCGCCAACGUCCUCAACCUCCAAUGCAUCCCACCACAUGAUGAUGCCUGAAGAGCCUUGGUUUUUUG

Variants of: B1
Assay: polymerase ribozyme fitness, log enrichment relative to wild type (log ratio); higher = more active; in vitro selection for triplet polymerase activity
Outline: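 After PCR construction and transcription, each subunit's mutant library from a heterodimeric triplet polymerase ribozyme was annealed with a biotinylated primer, the partner subunit and triplets. Incubation was frozen, at −7 °C, and extended constructs were gel-excised, bound to streptavidin beads and amplified by RT-PCR, in one selection round done in triplicate. Fitness is the logarithm of a genotype's enrichment divided by that of the wild type, from inverse-variance-weighted replicate averages of Illumina-sequenced inputs and outputs. The base of the logarithm is 2, and genotypes needed ≥10 input reads and ≥1 read per output.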

Variant | polymerase ribozyme fitness (log ratio)
G39U A41G G45A A119G U132G G135U | -2.12
U7G C8A C56A C124U U129A | -0.245
G57C G61U | -0.733
U7C C62A G110A A119C | -4.23
G71C G127C | -2.16
C13U C70G | -1.68
A6U A46C C85G G113A G135C | -3.74
G52A C56U | -0.699
A46U A74C U96A | -1.66
C13U A46U U130G | -2
C11U C15U G61A U78A G93A | -2.54
C56U C82U | -0.0659
G10C G60U G135C | -0.497
C12G G48U C62U | -1
U7G G63A C86G C94A G113U | -5.43
C3U C102U G117U | -4.61
U21A | -0.29
C12G A66C G93A C104U | -1.71
U30G A43C C104A A111U | -6.22
G45U G69U A119U | -0.819
C79G G120A | -0.791
C12G C34U | -3.31
A29G C72A | -1.27
U32G C82U A121C | -6.01

Variant | polymerase ribozyme fitness (log ratio)
U9C G71A | 0.0862
C62G A95U | -2.37
C11G A18G C89U U96A | -4.23
A26C A27C U59A C72U C123A | -6.08
G63U G127A | -2.25
C3U U78C A105U G120C | -1.99
U109A G110U | -3.28
A2G G52C G60U | 0.0795
C70U C115G U116C | -4.43
C3U C12A C79G | -2.97
A91C A103C | -7.08
C62U G71U G120U | 0.0266
G61A C88G U129A | -1.82
U33G G52C C56A G61A C79U A91G C123G U131G | -7.1
C11G C88U U116C | -0.109
G57A C76A | -0.895
C11G G63U C88A | -1.57
U7C C85G U87C | -1.57
G17U G48C | -2.61
C12A G69C | -2.39
C13G C53U | -1.87
C13U A29G A83G | -1.83
G45C G60C U129A | -2.68
G93A A95U C102A | -4.21

Variant | polymerase ribozyme fitness (log ratio)
G48C C56G G110U | -1.56
G61U G113U | -1.12
C88G C89A | -1.75
G47U C72A C76A C79A C80G C94G A100C U116G C124U U129A | -7.94
G77U G128C | -3.09
G58A G71A C89A C123A | -3.72
G45A C62U C115U U116C U126A G128C | -5.86
G23A G63U | -7.02
C13U G17A C123A | 0.664
G107A C114G G128A | -7.24
C49G A83G C88A C102U G120C | -5.33
G69U A84U C124U | 1.84
G36U C64U C115G G117U U132A | -6.32
G19U C31U C56G C124U | -6.42
C79U U109G | -5.09
C79U A111U | -3.01
U54G U109G | -4.29
A37G G71U | -1.09
G36A C40A C56U G110A U116A C124A U125G | -7.28
U81G G110A | -6.43
C8A G48C | -0.457
C8A C13G G17C C82U | -4
C20U C28G G45A G52U G69U C114U | -5.61
A18U C56U C94U A111C C114U | -5.39

Variant | polymerase ribozyme fitness (log ratio)
A83C C114G | -2.24
G69A C73A | -2.75
G45A G51U | -4.34
G44C C70A | -2.37
G63C G107A | -4.87
C70A A121C | 0.356
A41U C53U C72A C86A C114U U129G | -5.65
G60C G69U G93A G113C | -5.05
C79A C89A | -3.43
A50U G63C | -1.63
U112G G117U | -1.25
C11U C98U | -1.79
A5C G17A | -4.76
C13U U38G G63U C79G C88U C99G G110U G113U | -6.9
U9C G122A | -0.428
A46G A91C G93A | -3.21
C11U G39U | -1.37
G63A C79U A83G C123G | 0.0609
C34G G47U U55G G61C G63C C80U | -7.69
A16C C49A A74C C88A U116C | -3.06
C56A C86A | -0.76
A74U G113U | -3.37
A18U A27U C98A G110A | -7.19
C11A C124U | 0.668

Variant | polymerase ribozyme fitness (log ratio)
G35U C64G C97G G117C | -7.13
U54G C89U | -0.559
G45U G47C C85A C88U | -4.69
C11U C12A U14G G36U | -4.16
C99U C115A | -3.86
C56U G69U C79A C101U | -3.71
C8U C56A | 0.00842
U9G G39U | -0.00423
G23C A27C C53U U54C C62A C88G C99U C124U U130A U131G | -7.2
A5C G69A U129A | -4.05
C4G U9A C62G C89A C115A G117C | -5.76
U7C G42U G60C G120A C124G G128A | -3.07
C49G C99U G127U | -4.66
A6G G39U | -0.397
C11G C13U C104A A111U | -3.99
A50C U116A U131A | -3.32
C11A C72A C101A U126C | -3.38
C56U C115U U126A | -2.48
C102A C114U | -3.69
C85U U132A | -1.56
A84G G93U U125G | -2.63
A41U U55A | -1.08
A41C G61C G93C | -4.23
C40G C70G | -4.89

Variant | polymerase ribozyme fitness (log ratio)
C11U G71A | -1.53
G39C C70U C101A | -2.67
G35U G69A A105C U106A G120U | -6.28
C8G U125A | 0.0447
C20A C31G G39U A46U G47A A100C A108U U125A | -6.51
A27G C49U C76G | -2.99
G10A G44A G63C | -0.955
C34A G69C A111G | -5.23
G44C C49U C114U | -3.24
C13U A18G G23A A46U A111G | -7.19
U9C C80U A91G | -0.111
A18C C72A | -2.45
C40A C114A | -3.51
A43G G48A G63A U78C U112C G127U | -3.79
C72U U78C C94U | -0.922
C12G C40U C97U | -1.01
C53G U78C U81C U106A | -3.38
G10U G60C C79U G120C | 0.981
A66U G71C | -3.02
A5U U9G G47A G52U | -1.96
U9G C11A C70A U87A | -2.04
C89A C97U | -2.16
C13U A37U G42U G63U C85U U112A | -3.9
C3U U32C C101U G120C | -0.584

Variant | polymerase ribozyme fitness (log ratio)
A6U G52U C53G C70U G128C | -2.99
G10U G42U G45A G61U C85U | -2.25
C13U C76G C85U C104G | -7.55
G65A C79U | -3.57
A29U C40U G44U C85U C89A C94G | -4.32
G61A C64U C86A | -4.48
A6C G113U | -3.54
C3A U9G G44A C62A C88G G113A C123G | -4.87
C72G C85U C86U | -2.99
A41U G45A C56A G113A | -3.04
G47C G52C | -3
C12G A119U | 0.00185
C8G U32A A43U G47U G52C C86A U96A | -6.26
C70U G71U | -0.437
A37G A83C U125A | -0.963
C40A C53A G57U | -0.732
A6G G44C C49G | -1.68
C15A A74G U78G C79U G110U | -3.12
U14G C70G U116G | -5.13
U9A G10C C79A C101G | -2.55
A46U G77A C123A U129A | -2.69
C79U C82A U87A G110C | -4.6
C15A U116A | -4.69
